Consider 2 molecules from patent US20180327500A1 (SYMPHOGEN A S, published 2018).

In one experiment the target is T1, Mouse Blade 1-2.
T1 construct: human/mouse chimera on transfected HEK293 cells; also called AA 25-162
T1 MET ECD-SV5-GPI fusion: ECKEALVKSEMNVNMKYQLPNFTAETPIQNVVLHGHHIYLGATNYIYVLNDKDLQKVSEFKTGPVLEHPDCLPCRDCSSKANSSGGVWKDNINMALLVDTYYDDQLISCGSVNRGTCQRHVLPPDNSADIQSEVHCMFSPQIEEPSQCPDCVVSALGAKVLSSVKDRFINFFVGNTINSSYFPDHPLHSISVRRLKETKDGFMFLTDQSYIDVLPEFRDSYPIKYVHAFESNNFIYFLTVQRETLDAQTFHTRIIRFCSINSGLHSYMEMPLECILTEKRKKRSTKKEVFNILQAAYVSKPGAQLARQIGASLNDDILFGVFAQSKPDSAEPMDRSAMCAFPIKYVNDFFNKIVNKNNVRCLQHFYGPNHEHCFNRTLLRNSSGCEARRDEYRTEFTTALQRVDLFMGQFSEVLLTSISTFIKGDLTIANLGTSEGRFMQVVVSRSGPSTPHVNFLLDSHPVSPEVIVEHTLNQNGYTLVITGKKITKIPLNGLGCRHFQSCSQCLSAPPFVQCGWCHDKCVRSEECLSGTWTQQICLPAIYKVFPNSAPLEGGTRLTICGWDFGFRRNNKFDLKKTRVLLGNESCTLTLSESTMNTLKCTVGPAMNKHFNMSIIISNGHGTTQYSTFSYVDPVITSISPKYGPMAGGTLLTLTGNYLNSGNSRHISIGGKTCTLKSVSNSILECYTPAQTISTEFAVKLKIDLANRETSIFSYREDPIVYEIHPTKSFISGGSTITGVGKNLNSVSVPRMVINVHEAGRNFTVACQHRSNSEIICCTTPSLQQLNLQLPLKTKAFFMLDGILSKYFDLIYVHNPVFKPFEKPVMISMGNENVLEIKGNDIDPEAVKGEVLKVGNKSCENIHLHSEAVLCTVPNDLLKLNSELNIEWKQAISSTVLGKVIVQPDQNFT
Description: flow cytometry on transfected HEK293 cells. (In general: A flow cytometer gives signals particle by particle.)

For another experiment, the target named is T2, Mouse blade 3.
T2 construct: human/mouse chimera on transfected HEK293 cells; also called Mouse blade 3-IPT4
T2 MET ECD-SV5-GPI fusion: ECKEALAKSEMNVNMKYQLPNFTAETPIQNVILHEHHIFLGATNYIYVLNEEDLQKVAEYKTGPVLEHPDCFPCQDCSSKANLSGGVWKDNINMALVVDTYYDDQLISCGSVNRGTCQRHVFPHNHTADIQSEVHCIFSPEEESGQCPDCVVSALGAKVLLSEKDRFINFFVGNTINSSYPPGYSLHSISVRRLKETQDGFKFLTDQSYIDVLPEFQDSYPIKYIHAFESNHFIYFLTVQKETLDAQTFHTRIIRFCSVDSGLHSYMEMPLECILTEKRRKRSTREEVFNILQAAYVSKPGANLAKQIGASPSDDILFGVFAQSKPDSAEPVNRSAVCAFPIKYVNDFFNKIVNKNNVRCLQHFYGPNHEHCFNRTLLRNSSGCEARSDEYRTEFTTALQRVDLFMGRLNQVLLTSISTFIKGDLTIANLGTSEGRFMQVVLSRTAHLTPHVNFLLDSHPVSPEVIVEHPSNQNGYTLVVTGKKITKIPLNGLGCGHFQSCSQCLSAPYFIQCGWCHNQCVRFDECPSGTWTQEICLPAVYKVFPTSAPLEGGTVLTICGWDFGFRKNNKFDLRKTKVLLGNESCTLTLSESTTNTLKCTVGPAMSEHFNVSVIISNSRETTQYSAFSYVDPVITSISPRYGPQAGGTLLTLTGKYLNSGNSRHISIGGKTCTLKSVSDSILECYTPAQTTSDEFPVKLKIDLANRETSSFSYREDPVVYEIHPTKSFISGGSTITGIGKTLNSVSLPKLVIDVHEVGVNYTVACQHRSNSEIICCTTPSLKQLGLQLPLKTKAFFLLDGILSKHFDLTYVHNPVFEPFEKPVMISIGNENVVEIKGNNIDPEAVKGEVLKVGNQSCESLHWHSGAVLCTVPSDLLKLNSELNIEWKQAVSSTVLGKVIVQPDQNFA
Description: flow cytometry on transfected HEK293 cells.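 Further: antibodies applied at 50 µg/ml, binding called specific when fluorescence exceeds the mean signal on a negative control chicken or mouse MET construct plus four SD.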

Description for Mouse Blade 1-2: (§1) Cut-off values defined as the average fluorescence signal of all antibodies tested at 50 μg/ml to the negative control chicken or mouse MET construct+four standard deviations were employed to discriminate background binding from specific binding for the domain exchange or blade exchange constructs.
Description for Mouse blade 3: as §1

B1: humanized antibody 9338 (antibody, human IgG1, kappa, V domains shown)
VH: QVQLVQSGAEVKKPGSSVKVSCKASGYTFTSYWMHWVRQAPGQGLEWMGYINPSSGHIENNQKFKDRVTITADKSTSTAYMELSSLRSEDTAVYYCARGRFAYWGQGTLVTVSS
VL: EIVLTQSPATLSLSPGERATLSCSASSSVSSGYLYWYQQKPGQAPRLLIYSTSNLASGIPARFSGSGSGTDFTLTISSLEPEDFAVYYCHQWSSYPFTFGSGTKLEIKR
notes: also called Hu9338; hu9338
Take B1: in the experiment with Mouse Blade 1-2, the binding result is on record as “no binding (tested: 50 µg/ml)”.

B2: humanized antibody 9006 (antibody, human IgG1, kappa, V domains shown)
VH: QVQLVQSGSELKKPGASVKVSCKASGYTFTNFRMNWVKQAPGQGLKWMGWINTYTGEPTYVDDLKGRFVFSLDTSVSTAYLQISSLKAEDTAVYYCARKGIARAMDYWGQGTTVTVSS
VL: DIVMTQSPDSLAVSLGERATINCKSSQSLLDSGNQKNYLAWYQQKPGQPPKLLIFGASTRESGVPDRFSGSGSGTDFTLTISSLQAEDVAVYYCQNDHSYPYTFGQGTKLEIKR
notes: also called Hu9006; hu9006
With B2, the binding result with Mouse blade 3 was “no binding (tested: 50 µg/ml)”.
